Tests used:
[1] = molecular target: BurrH Variant2 (CAPNS1) (Burkholderia rhizoxinica) (UniProt E5AV36); test: ITC; conditions: FA and ITC: 25 mM HEPES pH 8, 150 mM NaCl, 0.2 mM TCEP, 298 K, SPR: HBS-EP+ (10 mM HEPES pH 7.4, 150 mM NaCl, 3 mM EDTA, 0.05% P20)
[2] = molecular target: Variant2 ND (Burkholderia rhizoxinica) (UniProt E5AV36); test: ITC; conditions: FA and ITC: 25 mM HEPES pH 8, 150 mM NaCl, 0.2 mM TCEP, 298 K, SPR: HBS-EP+ (10 mM HEPES pH 7.4, 150 mM NaCl, 3 mM EDTA, 0.05% P20)
AvrBs3 TALE = test: SPR; conditions: FA and ITC: 25 mM HEPES pH 8, 150 mM NaCl, 0.2 mM TCEP, 298 K, SPR: HBS-EP+ (10 mM HEPES pH 7.4, 150 mM NaCl, 3 mM EDTA, 0.05% P20)
BurrH [3] = molecular target: T1, BurrH (Burkholderia rhizoxinica, UniProt E5AV36 1-771); test: SPR; conditions: FA and ITC: 25 mM HEPES pH 8, 150 mM NaCl, 0.2 mM TCEP, 298 K, SPR: HBS-EP+ (10 mM HEPES pH 7.4, 150 mM NaCl, 3 mM EDTA, 0.05% P20)
T1 sequence: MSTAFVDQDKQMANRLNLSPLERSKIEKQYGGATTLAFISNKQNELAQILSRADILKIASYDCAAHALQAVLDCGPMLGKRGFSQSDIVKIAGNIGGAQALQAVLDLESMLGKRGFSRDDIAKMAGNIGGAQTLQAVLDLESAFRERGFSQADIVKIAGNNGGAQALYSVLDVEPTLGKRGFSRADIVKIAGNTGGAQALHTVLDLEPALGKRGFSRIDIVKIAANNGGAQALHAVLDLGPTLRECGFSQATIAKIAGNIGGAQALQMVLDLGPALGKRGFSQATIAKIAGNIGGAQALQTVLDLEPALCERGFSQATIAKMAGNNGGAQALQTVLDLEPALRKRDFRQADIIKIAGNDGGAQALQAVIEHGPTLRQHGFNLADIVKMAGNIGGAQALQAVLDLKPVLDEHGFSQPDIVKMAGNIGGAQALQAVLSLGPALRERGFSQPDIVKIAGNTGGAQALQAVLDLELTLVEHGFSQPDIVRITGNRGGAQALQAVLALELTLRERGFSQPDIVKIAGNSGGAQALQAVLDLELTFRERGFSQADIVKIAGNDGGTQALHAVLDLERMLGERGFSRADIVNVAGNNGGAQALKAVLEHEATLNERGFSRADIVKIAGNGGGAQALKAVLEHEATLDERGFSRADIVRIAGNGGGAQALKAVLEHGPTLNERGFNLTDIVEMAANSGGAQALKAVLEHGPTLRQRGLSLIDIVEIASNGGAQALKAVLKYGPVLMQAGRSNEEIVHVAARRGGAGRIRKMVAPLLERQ

[4] = molecular target: BurrH Variant3 (RAG1) (Burkholderia rhizoxinica) (UniProt E5AV36); test: ITC; conditions: FA and ITC: 25 mM HEPES pH 8, 150 mM NaCl, 0.2 mM TCEP, 298 K, SPR: HBS-EP+ (10 mM HEPES pH 7.4, 150 mM NaCl, 3 mM EDTA, 0.05% P20)
[5] = molecular target: Variant3 ND (Burkholderia rhizoxinica) (UniProt E5AV36); test: ITC; conditions: FA and ITC: 25 mM HEPES pH 8, 150 mM NaCl, 0.2 mM TCEP, 298 K, SPR: HBS-EP+ (10 mM HEPES pH 7.4, 150 mM NaCl, 3 mM EDTA, 0.05% P20)
[6] = molecular target: BurrH Variant4 (RAG1) (Burkholderia rhizoxinica) (UniProt E5AV36); test: ITC; conditions: FA and ITC: 25 mM HEPES pH 8, 150 mM NaCl, 0.2 mM TCEP, 298 K, SPR: HBS-EP+ (10 mM HEPES pH 7.4, 150 mM NaCl, 3 mM EDTA, 0.05% P20)
[7] = molecular target: Variant4 ND (Burkholderia rhizoxinica) (UniProt E5AV36); test: ITC; conditions: FA and ITC: 25 mM HEPES pH 8, 150 mM NaCl, 0.2 mM TCEP, 298 K, SPR: HBS-EP+ (10 mM HEPES pH 7.4, 150 mM NaCl, 3 mM EDTA, 0.05% P20)
[8] = molecular target: BurrH Variant1 (CAPNS1) (Burkholderia rhizoxinica) (UniProt E5AV36); test: ITC; conditions: FA and ITC: 25 mM HEPES pH 8, 150 mM NaCl, 0.2 mM TCEP, 298 K, SPR: HBS-EP+ (10 mM HEPES pH 7.4, 150 mM NaCl, 3 mM EDTA, 0.05% P20)
[9] = molecular target: Variant1 ND (Burkholderia rhizoxinica) (UniProt E5AV36); test: ITC; conditions: FA and ITC: 25 mM HEPES pH 8, 150 mM NaCl, 0.2 mM TCEP, 298 K, SPR: HBS-EP+ (10 mM HEPES pH 7.4, 150 mM NaCl, 3 mM EDTA, 0.05% P20)
BurrH [10] = molecular target: T1, BurrH; test: ITC; FA and ITC: 25 mM HEPES pH 8, 150 mM NaCl, 0.2 mM TCEP, 298 K; SPR: HBS-EP+ (10 mM HEPES pH 7.4, 150 mM NaCl, 3 mM EDTA, 0.05% P20), 298 K; conditions: protein: recombinant
BurrH [11] = molecular target: T1, BurrH; test: fluorescence anisotropy; FA and ITC: 25 mM HEPES pH 8, 150 mM NaCl, 0.2 mM TCEP, 298 K; SPR: HBS-EP+ (10 mM HEPES pH 7.4, 150 mM NaCl, 3 mM EDTA, 0.05% P20), 298 K; conditions: protein: recombinant; label: 5' 6-FAM

TTTTGTCCGGGAACCCAGAGCTA (double strand) [V2 target]
Kd [1]: 0.149 µM | Kd [2]: 0.215 µM

BurrH target, SPR duplex
Kd (AvrBs3 TALE): 1 µM | Kd (BurrH [3]): 0.00036 µM

TTCAGTGTTTATGGTTACTTATA (double strand) [V3 target]
Kd [4]: 0.03 µM | Kd [5]: 0.026 µM

TTGTATATATTTAAGCACTTATA (double strand) [V4 target]
Kd [6]: 0.012 µM | Kd [7]: 0.014 µM

TTGGCTCTGTGGGCTCGGGTCTA (double strand) [V1 target]
Kd [8]: 0.029 µM | Kd [9]: 0.029 µM

AvrBs3 target, SPR duplex
Kd (AvrBs3 TALE): 0.00022 µM

B1: BurrH DNA target duplex (dsDNA)
DNA 1: TTAAGAGAAGCAAATACGTTATA
DNA 2: TATAACGTATTTGCTTCTCTTAA
Kd (BurrH [10]): 0.025 ± 0.0043 µM

B2: FA duplex 10 (C4 C12 G13) (dsDNA)
DNA 1: TTAAGCGAAGCAACGACGTTATA
DNA 2: TATAACGTCGTTGCTTCGCTTAA
Kd (BurrH [11]): 0.049 ± 0.01 µM

B3: BurrH target A0 (dsDNA)
DNA 1: TAAAGAGAAGCAAATACGTTATA
DNA 2: TATAACGTATTTGCTTCTCTTTA
Kd (BurrH [10]): 0.015 ± 0.0028 µM

B4: FA duplex 7 (G4 G12 T13) (dsDNA)
DNA 1: TTAAGGGAAGCAAGTACGTTATA
DNA 2: TATAACGTACTTGCTTCCCTTAA
Kd (BurrH [11]): 0.042 ± 0.007 µM

B5: FA duplex 14 (C4 C12 C13) (dsDNA)
DNA 1: TTAAGCGAAGCAACCACGTTATA
DNA 2: TATAACGTGGTTGCTTCGCTTAA
Kd (BurrH [11]): 0.047 ± 0.005 µM

B6: FA duplex 11 (G4 G12 G13) (dsDNA)
DNA 1: TTAAGGGAAGCAAGGACGTTATA
DNA 2: TATAACGTCCTTGCTTCCCTTAA
Kd (BurrH [11]): 0.09 ± 0.012 µM

B7: FA duplex 3 (G4 G12 A13) (dsDNA)
DNA 1: TTAAGGGAAGCAAGAACGTTATA
DNA 2: TATAACGTTCTTGCTTCCCTTAA
Kd (BurrH [11]): 0.081 ± 0.012 µM

B8: FA duplex 1 (A4 A12 A13) (dsDNA)
DNA 1: TTAAGAGAAGCAAAAACGTTATA
DNA 2: TATAACGTTTTTGCTTCTCTTAA
Kd (BurrH [11]): 0.04 ± 0.003 µM

B9: BurrH target G0 (dsDNA)
DNA 1: TGAAGAGAAGCAAATACGTTATA
DNA 2: TATAACGTATTTGCTTCTCTTCA
Kd (BurrH [10]): 0.024 ± 0.0063 µM

B10: FA duplex 9 (A4 A12 G13) (dsDNA)
DNA 1: TTAAGAGAAGCAAAGACGTTATA
DNA 2: TATAACGTCTTTGCTTCTCTTAA
Kd (BurrH [11]): 0.035 ± 0.006 µM

B11: FA duplex 6 (C4 C12 T13) (dsDNA)
DNA 1: TTAAGCGAAGCAACTACGTTATA
DNA 2: TATAACGTAGTTGCTTCGCTTAA
Kd (BurrH [11]): 0.043 ± 0.01 µM

B12: FA duplex 2 (C4 C12 A13) (dsDNA)
DNA 1: TTAAGCGAAGCAACAACGTTATA
DNA 2: TATAACGTTGTTGCTTCGCTTAA
Kd (BurrH [11]): 0.044 ± 0.009 µM

B13: FA duplex 12 (T4 T12 G13) (dsDNA)
DNA 1: TTAAGTGAAGCAATGACGTTATA
DNA 2: TATAACGTCATTGCTTCACTTAA
Kd (BurrH [11]): 0.063 ± 0.005 µM

B14: FA duplex 13 (A4 A12 C13) (dsDNA)
DNA 1: TTAAGAGAAGCAAACACGTTATA
DNA 2: TATAACGTGTTTGCTTCTCTTAA
Kd (BurrH [11]): 0.039 ± 0.01 µM

B15: FA duplex 4 (T4 T12 A13) (dsDNA)
DNA 1: TTAAGTGAAGCAATAACGTTATA
DNA 2: TATAACGTTATTGCTTCACTTAA
Kd (BurrH [11]): 0.061 ± 0.008 µM

B16: FA duplex 15 (G4 G12 C13) (dsDNA)
DNA 1: TTAAGGGAAGCAAGCACGTTATA
DNA 2: TATAACGTGCTTGCTTCCCTTAA
Kd (BurrH [11]): 0.059 ± 0.006 µM

B17: BurrH target C0 (dsDNA)
DNA 1: TCAAGAGAAGCAAATACGTTATA
DNA 2: TATAACGTATTTGCTTCTCTTGA
Kd (BurrH [10]): 0.015 ± 0.0032 µM

B18: BurrH DNA target/RNA hybrid (DNA:RNA)
DNA: TTAAGAGAAGCAAATACGTTATA
RNA: UAUAACGUAUUUGCAACUCUUAA
Kd (BurrH [10]; blunt): 0.056 ± 0.0065 µM

B19: BurrH RNA target/DNA hybrid (DNA:RNA)
RNA: UUAAGAGAAGCAAAUACGUUAUA
DNA: TATAACGTATTTGCAACTCTTAA
Kd (BurrH [10]; blunt): 1.89 ± 0.438 µM

B20: FA duplex 5 (A4 A12 T13) (dsDNA)
DNA 1: TTAAGAGAAGCAAATACGTTATA
DNA 2: TATAACGTATTTGCTTCTCTTAA
Kd (BurrH [11]): 0.032 ± 0.007 µM

From publication PMC4089491, “BuD, a helix–loop–helix DNA-binding domain for genome modification”
